# Laboratory results as given in publication PMC8617651, “Cloning, Expression and Characterization of UDP-Glucose Dehydrogenases” (Life, 2021).
# Experiments:
# Assay in all cases: UDP-GlcA formation by UHPLC, Michaelis-Menten fit, crude extract
# Conditions in all cases: 0.5 mM NAD+, 50 mM Tris-HCl pH 8.0, 30 °C, 0.5 g/L extract protein, 1-5 mM UDP-Glc
# [1] = substrate: O=c1ccn([C@@H]2O[C@H](CO[P@@](=O)(O)O[P@@](=O)(O)O[C@H]3O[C@H](CO)[C@@H](O)[C@H](O)[C@H]3O)[C@@H](O)[C@H]2O)c(=O)[nH]1; assay type: biochemical, Zymomonas mobilis
# Description: (§1) UDP-GlcA formation by UHPLC, Michaelis-Menten fit, crude extract on ZmUGD
# [2] = substrate: O=c1ccn([C@@H]2O[C@H](CO[P@@](=O)(O)O[P@@](=O)(O)O[C@H]3O[C@H](CO)[C@@H](O)[C@H](O)[C@H]3O)[C@@H](O)[C@H]2O)c(=O)[nH]1; assay type: biochemical, Zymomonas mobilis; remark: listed apart in the source
# Description: as §1
# [3] = substrate: O=c1ccn([C@@H]2O[C@H](CO[P@@](=O)(O)O[P@@](=O)(O)O[C@H]3O[C@H](CO)[C@@H](O)[C@H](O)[C@H]3O)[C@@H](O)[C@H]2O)c(=O)[nH]1; assay type: biochemical, Capra hircus
# Description: UDP-GlcA formation by UHPLC, Michaelis-Menten fit, crude extract on ChUGD
Protein,Km [1],Km [2],Km [3]
"ZmUGD (Zymomonas mobilis) (protein, N-terminal 6xHis tag (pRSFDuet-1), expressed in E. coli BL21 (DE3), crude soluble cell extract (host has a predicted own UGD)) MRITMIGSGYVGLVSGACFSDFGHNVICVDHDQEKIALLQKGVMPIYEPGLADMVANNVKAGRLSFSNDLASSVKDADAVFIAVGTPSRRGDGHADLSYVFAAAKEIAASVSDNTVVVDKSTVPVGTGDEVERIIREIAPDKKIWVASNPEFLREGAAIGDFKRPDRIVIGTENPEAREIMQEIYRPLYLNQSPILFTSRRSAELIKYASNAFLATKITFINEMADLCEAVGGDVQDVARGIGADNRIGSKFLHAGPGYGGSCFPKDTLALLKTAENFATPLRVVESVVTANNIRKRAMARKVLQAIGKDMRGQKIGLLGLTFKPNTDDMRDAPSLALIQGLEDAGAIIHAYDPEGMTQARPLLPNVVFEDEPYKVAEKAEALVIVTEWDAFRALDLKRIAGLLKTPLLLDLRNIYTEEEAKKAGLVYHGIGRPHAG",1234 µM,2586 µM,
"ChUGD (Capra hircus) (protein, codon-optimized synthetic gene, N-terminal 6xHis tag, expressed in S. cerevisiae, crude soluble cell extract) MFEIKKICCIGAGYVGGPTCSVIAHMCPEIRVTVVDINESRINAWNSPTLPIYEPGLKEVVESCRGKNLFFSTNIDDAIKEADLVFISVNTPTKTYGMGKGRAADLKYIEACARRIVQNSHGYKIVTEKSTVPVRAAESIRRIFDANTKPNLNLQVLSNPEFLAEGTAIKDLKNPDRVLIGGDETPEGQRAVQALCAVYEHWVPREKILTTNTWSSELSKLTANAFLAQRISSINSISALCEATGADVEEVATAIGMDQRIGSKFLKASVGFGGSCFQKDVLNLVYLCEALNLPEVARYWQQVIDMNDYQRRRFASRIIDSLFNTVTDKKIAILGFAFKKDTGDTRESSSIYISKYLMDEGAHLHIYDPKVPREQIVVDLSHPGVSKDDQVARLVTISKDPYEACDGAHAVVICTEWDMFKELDYERIHKKMLKPAFIFDGRRVLDGLHNELQTIGFQIETIGKKVSSKRIPYAPSGEIPKFSLQDMPNKKPRV",,,841 µM
